Experimental data taken from patent US20180263964A1 (MINERVA BIOTECHNOLOGIES, published 2018).

B1: NME7-X1 (ligand)
chain: MMMLSRKEALDFHVDHQSRPFFNELIQFITTGPIIAMEILRDDAICEWKRLLGPANSGVARTDASESIRALFGTDGIRNAAHGPDSFASAAREMELFFPSSGGCGPANTAKFTNCTCCIVKPHAVSEGLLGKILMAIRDAGFEISAMQMFNMDRVNVEEFYEVYKGVVTEYHDMVTEMYSGPCVAMEIQQNNATKTFREFCGPADPEIARHLRPGTLRAIFGKTKIQNAVHCTDLPEDGLLEVQYFFKILDN
notes: Alternative splice isoform of NME7; In the blots it is the endogenous 30 kDa species of cell lysates; also called human NME7-X1; 30 kDa NME7-reactive species
B2: full-length NME7, 42 kDa (other, UniProt Q9Y5B8 1-376, looked up)
chain: MNHSERFVFIAEWYDPNASLLRRYELLFYPGDGSVEMHDVKNHRTFLKRTKYDNLHLEDLFIGNKVNVFSRQLVLIDYGDQYTARQLGSRKEKTLALIKPDAISKAGEIIEIINKAGFTITKLKMMMLSRKEALDFHVDHQSRPFFNELIQFITTGPIIAMEILRDDAICEWKRLLGPANSGVARTDASESIRALFGTDGIRNAAHGPDSFASAAREMELFFPSSGGCGPANTAKFTNCTCCIVKPHAVSEGLLGKILMAIRDAGFEISAMQMFNMDRVNVEEFYEVYKGVVTEYHDMVTEMYSGPCVAMEIQQNNATKTFREFCGPADPEIARHLRPGTLRAIFGKTKIQNAVHCTDLPEDGLLEVQYFFKILDN
notes: Endogenous 42 kDa protein in cell lysates; also called native NME7
B3: NME7AB (ligand)
chain: MEKTLALIKPDAISKAGEIIEIINKAGFTITKLKMMMLSRKEALDFHVDHQSRPFFNELIQFITTGPIIAMEILRDDAICEWKRLLGPANSGVARTDASESIRALFGTDGIRNAAHGPDSFASAAREMELFFPSSGGCGPANTAKFTNCTCCIVKPHAVSEGLLGKILMAIRDAGFEISAMQMFNMDRVNVEEFYEVYKGVVTEYHDMVTEMYSGPCVAMEIQQNNATKTFREFCGPADPEIARHLRPGTLRAIFGKTKIQNAVHCTDLPEDGLLEVQYFFKILDN
notes: In the co-immunoprecipitations and Western blots this is the endogenous 33 kDa species of cell lysates; also called human NME7-AB; 33 kDa NME7-reactive species

Key:
full-length MUC1 [1] = molecular target: T1, full-length MUC1 (human, UniProt P15941 24-1255, limits assumed); assay: co-immunoprecipitation gel stripped and re-probed with an anti-MUC1* (PSMGFR) antibody
T1 construct: also called full-length MUC1 Receptor; Mucin 1 precursor

full-length MUC1 [2] = molecular target: T1, full-length MUC1; assay: co-immunoprecipitation with Ab5 from human iPS and HES cell lysates, Western blot for NME7

T1 sequence (P15941 other isoform, or with tags, fused parts or gaps limits assumed): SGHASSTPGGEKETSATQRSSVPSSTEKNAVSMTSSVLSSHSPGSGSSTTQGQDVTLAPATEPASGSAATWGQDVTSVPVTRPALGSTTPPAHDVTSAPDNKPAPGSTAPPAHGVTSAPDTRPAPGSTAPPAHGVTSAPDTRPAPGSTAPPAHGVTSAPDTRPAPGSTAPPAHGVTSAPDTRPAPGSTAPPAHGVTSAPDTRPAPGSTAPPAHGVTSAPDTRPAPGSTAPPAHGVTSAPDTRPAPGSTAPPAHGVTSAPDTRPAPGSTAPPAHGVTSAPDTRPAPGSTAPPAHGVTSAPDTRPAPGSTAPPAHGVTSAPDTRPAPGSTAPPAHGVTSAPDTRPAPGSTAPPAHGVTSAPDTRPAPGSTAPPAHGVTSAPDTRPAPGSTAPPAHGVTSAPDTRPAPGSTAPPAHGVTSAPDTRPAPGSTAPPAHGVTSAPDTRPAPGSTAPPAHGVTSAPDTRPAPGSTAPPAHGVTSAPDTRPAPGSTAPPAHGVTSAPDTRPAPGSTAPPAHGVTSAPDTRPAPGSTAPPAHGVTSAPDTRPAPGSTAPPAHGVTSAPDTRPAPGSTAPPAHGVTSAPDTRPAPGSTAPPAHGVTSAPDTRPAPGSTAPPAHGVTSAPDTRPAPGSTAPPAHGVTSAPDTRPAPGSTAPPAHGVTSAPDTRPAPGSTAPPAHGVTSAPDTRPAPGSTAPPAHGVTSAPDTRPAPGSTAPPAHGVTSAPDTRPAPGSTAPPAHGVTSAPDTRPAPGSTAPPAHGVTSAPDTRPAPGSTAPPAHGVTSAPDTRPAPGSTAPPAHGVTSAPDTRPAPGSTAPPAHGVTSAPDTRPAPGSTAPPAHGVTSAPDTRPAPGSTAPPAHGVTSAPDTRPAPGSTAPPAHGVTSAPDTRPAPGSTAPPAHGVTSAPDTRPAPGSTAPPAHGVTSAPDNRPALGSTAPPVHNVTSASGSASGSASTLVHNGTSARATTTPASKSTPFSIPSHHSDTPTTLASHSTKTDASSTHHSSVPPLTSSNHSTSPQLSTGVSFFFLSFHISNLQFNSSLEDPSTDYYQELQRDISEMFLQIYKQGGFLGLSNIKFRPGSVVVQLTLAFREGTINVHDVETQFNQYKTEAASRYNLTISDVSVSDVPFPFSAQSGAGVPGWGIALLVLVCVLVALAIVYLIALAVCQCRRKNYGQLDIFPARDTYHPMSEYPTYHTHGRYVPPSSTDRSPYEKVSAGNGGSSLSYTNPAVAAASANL

| Binder | binding result (full-length MUC1 [1]) | binding result (full-length MUC1 [2]) |
| --- | --- | --- |
| B1 | no binding |  |
| B2 |  | no binding |
| B3 | no binding |  |
